Among the data in patent US20260015399A1 (Boehringer Ingelheim, published 2026) are Ki values, retold here.

*1 amine or outer side, *2 acyl side, *3 side chain or, on linkers, in order; H or OH if unused. Side-chain parts run from the residue outwards. The star is where a group is joined. C18 diacid = O=C(O)CCCCCCCCCCCCCCCCC(=O)*; γGlu = O=C(O)[C@H](CCC(=O)[*:2])N[*:1]; Isovaleryl = CC(C)CC(=O)*; Ahx = NCCCCCC(=O)O

The labels stand for the following.
T1: human NPY2 receptor (human, UniProt P49146 1-381)
T1 construct: whole, on cells; also called hNPY2-R; hNPY2R
T1 sequence (looked up): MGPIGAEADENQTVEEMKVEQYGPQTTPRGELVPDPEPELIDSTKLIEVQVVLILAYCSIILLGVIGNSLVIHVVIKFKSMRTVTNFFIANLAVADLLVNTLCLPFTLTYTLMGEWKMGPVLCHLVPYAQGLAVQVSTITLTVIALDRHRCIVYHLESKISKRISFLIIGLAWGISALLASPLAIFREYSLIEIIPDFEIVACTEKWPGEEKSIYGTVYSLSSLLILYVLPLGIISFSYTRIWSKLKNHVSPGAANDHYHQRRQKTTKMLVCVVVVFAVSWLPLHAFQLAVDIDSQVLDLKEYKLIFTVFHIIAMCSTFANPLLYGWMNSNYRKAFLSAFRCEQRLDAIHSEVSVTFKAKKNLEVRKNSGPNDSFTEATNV

B1: Compound 134 (peptide)
peptide: Isovaleryl-APEK([Ahx-γGlu-C18 diacid])PEEDATPEEQQRYYVSLRHYYNWLTRQRY-NH2
SMILES: CC(C)CC(=O)N[C@@H](C)C(=O)N1CCC[C@H]1C(=O)N[C@@H](CCC(=O)O)C(=O)N[C@@H](CCCCNC(=O)CCCCCNC(=O)CC[C@H](NC(=O)CCCCCCCCCCCCCCCCC(=O)O)C(=O)O)C(=O)N1CCC[C@H]1C(=O)N[C@@H](CCC(=O)O)C(=O)N[C@@H](CCC(=O)O)C(=O)N[C@@H](CC(=O)O)C(=O)N[C@@H](C)C(=O)N[C@H](C(=O)N1CCC[C@H]1C(=O)N[C@@H](CCC(=O)O)C(=O)N[C@@H](CCC(=O)O)C(=O)N[C@@H](CCC(N)=O)C(=O)N[C@@H](CCC(N)=O)C(=O)N[C@@H](CCCNC(=N)N)C(=O)N[C@@H](Cc1ccc(O)cc1)C(=O)N[C@@H](Cc1ccc(O)cc1)C(=O)N[C@H](C(=O)N[C@@H](CO)C(=O)N[C@@H](CC(C)C)C(=O)N[C@@H](CCCNC(=N)N)C(=O)N[C@@H](Cc1c[nH]cn1)C(=O)N[C@@H](Cc1ccc(O)cc1)C(=O)N[C@@H](Cc1ccc(O)cc1)C(=O)N[C@@H](CC(N)=O)C(=O)N[C@@H](Cc1c[nH]c2ccccc12)C(=O)N[C@@H](CC(C)C)C(=O)N[C@H](C(=O)N[C@@H](CCCNC(=N)N)C(=O)N[C@@H](CCC(N)=O)C(=O)N[C@@H](CCCNC(=N)N)C(=O)N[C@@H](Cc1ccc(O)cc1)C(N)=O)[C@@H](C)O)C(C)C)[C@@H](C)O
B2: Compound 138 (peptide)
peptide: Isovaleryl-APEK([Ahx-γGlu-C18 diacid])PEEDAEPEELQEYYVSLRHYYNWLTRQRY-NH2
SMILES: CC(C)CC(=O)N[C@@H](C)C(=O)N1CCC[C@H]1C(=O)N[C@@H](CCC(=O)O)C(=O)N[C@@H](CCCCNC(=O)CCCCCNC(=O)CC[C@H](NC(=O)CCCCCCCCCCCCCCCCC(=O)O)C(=O)O)C(=O)N1CCC[C@H]1C(=O)N[C@@H](CCC(=O)O)C(=O)N[C@@H](CCC(=O)O)C(=O)N[C@@H](CC(=O)O)C(=O)N[C@@H](C)C(=O)N[C@@H](CCC(=O)O)C(=O)N1CCC[C@H]1C(=O)N[C@@H](CCC(=O)O)C(=O)N[C@@H](CCC(=O)O)C(=O)N[C@@H](CC(C)C)C(=O)N[C@@H](CCC(N)=O)C(=O)N[C@@H](CCC(=O)O)C(=O)N[C@@H](Cc1ccc(O)cc1)C(=O)N[C@@H](Cc1ccc(O)cc1)C(=O)N[C@H](C(=O)N[C@@H](CO)C(=O)N[C@@H](CC(C)C)C(=O)N[C@@H](CCCNC(=N)N)C(=O)N[C@@H](Cc1c[nH]cn1)C(=O)N[C@@H](Cc1ccc(O)cc1)C(=O)N[C@@H](Cc1ccc(O)cc1)C(=O)N[C@@H](CC(N)=O)C(=O)N[C@@H](Cc1c[nH]c2ccccc12)C(=O)N[C@@H](CC(C)C)C(=O)N[C@H](C(=O)N[C@@H](CCCNC(=N)N)C(=O)N[C@@H](CCC(N)=O)C(=O)N[C@@H](CCCNC(=N)N)C(=O)N[C@@H](Cc1ccc(O)cc1)C(N)=O)[C@@H](C)O)C(C)C
B3: Compound 139 (peptide)
peptide: Isovaleryl-APEK([Ahx-γGlu-C18 diacid])PEEEASPAELQRYYVSLRHYYNWLTRQRY-NH2
SMILES: CC(C)CC(=O)N[C@@H](C)C(=O)N1CCC[C@H]1C(=O)N[C@@H](CCC(=O)O)C(=O)N[C@@H](CCCCNC(=O)CCCCCNC(=O)CC[C@H](NC(=O)CCCCCCCCCCCCCCCCC(=O)O)C(=O)O)C(=O)N1CCC[C@H]1C(=O)N[C@@H](CCC(=O)O)C(=O)N[C@@H](CCC(=O)O)C(=O)N[C@@H](CCC(=O)O)C(=O)N[C@@H](C)C(=O)N[C@@H](CO)C(=O)N1CCC[C@H]1C(=O)N[C@@H](C)C(=O)N[C@@H](CCC(=O)O)C(=O)N[C@@H](CC(C)C)C(=O)N[C@@H](CCC(N)=O)C(=O)N[C@@H](CCCNC(=N)N)C(=O)N[C@@H](Cc1ccc(O)cc1)C(=O)N[C@@H](Cc1ccc(O)cc1)C(=O)N[C@H](C(=O)N[C@@H](CO)C(=O)N[C@@H](CC(C)C)C(=O)N[C@@H](CCCNC(=N)N)C(=O)N[C@@H](Cc1c[nH]cn1)C(=O)N[C@@H](Cc1ccc(O)cc1)C(=O)N[C@@H](Cc1ccc(O)cc1)C(=O)N[C@@H](CC(N)=O)C(=O)N[C@@H](Cc1c[nH]c2ccccc12)C(=O)N[C@@H](CC(C)C)C(=O)N[C@H](C(=O)N[C@@H](CCCNC(=N)N)C(=O)N[C@@H](CCC(N)=O)C(=O)N[C@@H](CCCNC(=N)N)C(=O)N[C@@H](Cc1ccc(O)cc1)C(N)=O)[C@@H](C)O)C(C)C
B4: Compound 137 (peptide)
peptide: Isovaleryl-APEK([Ahx-γGlu-C18 diacid])PEEDATPEELQRYYVSLRHYYNWLLRQRY-NH2
SMILES: CC(C)CC(=O)N[C@@H](C)C(=O)N1CCC[C@H]1C(=O)N[C@@H](CCC(=O)O)C(=O)N[C@@H](CCCCNC(=O)CCCCCNC(=O)CC[C@H](NC(=O)CCCCCCCCCCCCCCCCC(=O)O)C(=O)O)C(=O)N1CCC[C@H]1C(=O)N[C@@H](CCC(=O)O)C(=O)N[C@@H](CCC(=O)O)C(=O)N[C@@H](CC(=O)O)C(=O)N[C@@H](C)C(=O)N[C@H](C(=O)N1CCC[C@H]1C(=O)N[C@@H](CCC(=O)O)C(=O)N[C@@H](CCC(=O)O)C(=O)N[C@@H](CC(C)C)C(=O)N[C@@H](CCC(N)=O)C(=O)N[C@@H](CCCNC(=N)N)C(=O)N[C@@H](Cc1ccc(O)cc1)C(=O)N[C@@H](Cc1ccc(O)cc1)C(=O)N[C@H](C(=O)N[C@@H](CO)C(=O)N[C@@H](CC(C)C)C(=O)N[C@@H](CCCNC(=N)N)C(=O)N[C@@H](Cc1c[nH]cn1)C(=O)N[C@@H](Cc1ccc(O)cc1)C(=O)N[C@@H](Cc1ccc(O)cc1)C(=O)N[C@@H](CC(N)=O)C(=O)N[C@@H](Cc1c[nH]c2ccccc12)C(=O)N[C@@H](CC(C)C)C(=O)N[C@@H](CC(C)C)C(=O)N[C@@H](CCCNC(=N)N)C(=O)N[C@@H](CCC(N)=O)C(=O)N[C@@H](CCCNC(=N)N)C(=O)N[C@@H](Cc1ccc(O)cc1)C(N)=O)C(C)C)[C@@H](C)O
B5: Compound 135 (peptide)
peptide: Isovaleryl-APEK([Ahx-γGlu-C18 diacid])PEAAAEPEEIQRYYVALRHYYNWLTRQRY-NH2
SMILES: CC[C@H](C)[C@H](NC(=O)[C@H](CCC(=O)O)NC(=O)[C@H](CCC(=O)O)NC(=O)[C@@H]1CCCN1C(=O)[C@H](CCC(=O)O)NC(=O)[C@H](C)NC(=O)[C@H](C)NC(=O)[C@H](C)NC(=O)[C@H](CCC(=O)O)NC(=O)[C@@H]1CCCN1C(=O)[C@H](CCCCNC(=O)CCCCCNC(=O)CC[C@H](NC(=O)CCCCCCCCCCCCCCCCC(=O)O)C(=O)O)NC(=O)[C@H](CCC(=O)O)NC(=O)[C@@H]1CCCN1C(=O)[C@H](C)NC(=O)CC(C)C)C(=O)N[C@@H](CCC(N)=O)C(=O)N[C@@H](CCCNC(=N)N)C(=O)N[C@@H](Cc1ccc(O)cc1)C(=O)N[C@@H](Cc1ccc(O)cc1)C(=O)N[C@H](C(=O)N[C@@H](C)C(=O)N[C@@H](CC(C)C)C(=O)N[C@@H](CCCNC(=N)N)C(=O)N[C@@H](Cc1c[nH]cn1)C(=O)N[C@@H](Cc1ccc(O)cc1)C(=O)N[C@@H](Cc1ccc(O)cc1)C(=O)N[C@@H](CC(N)=O)C(=O)N[C@@H](Cc1c[nH]c2ccccc12)C(=O)N[C@@H](CC(C)C)C(=O)N[C@H](C(=O)N[C@@H](CCCNC(=N)N)C(=O)N[C@@H](CCC(N)=O)C(=O)N[C@@H](CCCNC(=N)N)C(=O)N[C@@H](Cc1ccc(O)cc1)C(N)=O)[C@@H](C)O)C(C)C
B6: Compound 141 (peptide)
peptide: Isovaleryl-APEK([Ahx-γGlu-C18 diacid])PEEDATPEELQSYYVSLRHYYNWLTRQRY-NH2
SMILES: CC(C)CC(=O)N[C@@H](C)C(=O)N1CCC[C@H]1C(=O)N[C@@H](CCC(=O)O)C(=O)N[C@@H](CCCCNC(=O)CCCCCNC(=O)CC[C@H](NC(=O)CCCCCCCCCCCCCCCCC(=O)O)C(=O)O)C(=O)N1CCC[C@H]1C(=O)N[C@@H](CCC(=O)O)C(=O)N[C@@H](CCC(=O)O)C(=O)N[C@@H](CC(=O)O)C(=O)N[C@@H](C)C(=O)N[C@H](C(=O)N1CCC[C@H]1C(=O)N[C@@H](CCC(=O)O)C(=O)N[C@@H](CCC(=O)O)C(=O)N[C@@H](CC(C)C)C(=O)N[C@@H](CCC(N)=O)C(=O)N[C@@H](CO)C(=O)N[C@@H](Cc1ccc(O)cc1)C(=O)N[C@@H](Cc1ccc(O)cc1)C(=O)N[C@H](C(=O)N[C@@H](CO)C(=O)N[C@@H](CC(C)C)C(=O)N[C@@H](CCCNC(=N)N)C(=O)N[C@@H](Cc1c[nH]cn1)C(=O)N[C@@H](Cc1ccc(O)cc1)C(=O)N[C@@H](Cc1ccc(O)cc1)C(=O)N[C@@H](CC(N)=O)C(=O)N[C@@H](Cc1c[nH]c2ccccc12)C(=O)N[C@@H](CC(C)C)C(=O)N[C@H](C(=O)N[C@@H](CCCNC(=N)N)C(=O)N[C@@H](CCC(N)=O)C(=O)N[C@@H](CCCNC(=N)N)C(=O)N[C@@H](Cc1ccc(O)cc1)C(N)=O)[C@@H](C)O)C(C)C)[C@@H](C)O

This assay concerns the target T1, human NPY2 receptor. Nature of the assay: RLB: displacement of 125I-PYY(1-36) from hNPY2R membranes. In general terms: Displacement assays read how much labelled ligand stays bound in the presence of the test substance.
The molecule B1 returned an inhibition constant (Ki) of 2.8 nM. In other words, the single-digit nanomolar range.
The molecule B2 showed a Ki of 12.5 nM.
For B3, the affinity, expressed as Ki, was 3.6 nM.
To B4 belongs 49.6 nM.
In the case of B5 it was 3.83 nM; in that of B6, 8.17 nM.

A word on the Ki: it is a measure of affinity in units of concentration, obtained from inhibition or displacement. Lower therefore signals tighter binding.
